These results are taken from patent publication US20040223968A1.

What all share (assay): cell-based or functional assay
The target in test [1] is MCP-1RB (monocyte chemoattractant protein-1 receptor B) (human) (UniProt P41597).
Test [2] deals with MCP-1RA (monocyte chemoattractant protein-1 receptor A) (human) (UniProt P41597).
In test [3] the target is MIP-1α/RANTES receptor (Homo sapiens (Human)) (UniProt P32246).
MIP-1α/RANTES receptor (Homo sapiens (Human)), sequence (P32246 whole entry): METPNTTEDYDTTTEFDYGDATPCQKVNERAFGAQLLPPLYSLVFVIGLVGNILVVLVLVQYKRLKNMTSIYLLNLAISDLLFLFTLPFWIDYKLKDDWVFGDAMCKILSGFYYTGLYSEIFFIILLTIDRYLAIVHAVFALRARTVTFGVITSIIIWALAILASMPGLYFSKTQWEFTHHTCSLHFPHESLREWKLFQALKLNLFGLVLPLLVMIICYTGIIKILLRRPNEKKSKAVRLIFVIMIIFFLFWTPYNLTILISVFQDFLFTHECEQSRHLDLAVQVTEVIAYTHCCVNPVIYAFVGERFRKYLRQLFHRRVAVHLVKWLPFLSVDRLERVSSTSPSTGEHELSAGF

MCP-1RB (monocyte chemoattractant protein-1 receptor B) (human), sequence (P41597 other isoform, or with tags, fused parts or gaps): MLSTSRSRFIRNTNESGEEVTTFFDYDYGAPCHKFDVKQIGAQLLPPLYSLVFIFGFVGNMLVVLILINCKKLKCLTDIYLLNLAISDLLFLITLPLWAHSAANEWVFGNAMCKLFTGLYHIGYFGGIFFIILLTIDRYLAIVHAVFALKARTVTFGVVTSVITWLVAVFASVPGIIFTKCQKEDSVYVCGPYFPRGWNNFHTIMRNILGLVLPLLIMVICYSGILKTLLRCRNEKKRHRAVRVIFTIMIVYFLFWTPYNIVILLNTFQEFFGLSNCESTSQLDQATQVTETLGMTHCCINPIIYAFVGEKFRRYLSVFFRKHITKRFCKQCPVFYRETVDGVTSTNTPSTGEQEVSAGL
MCP-1RA (monocyte chemoattractant protein-1 receptor A) (human), sequence (P41597 whole entry): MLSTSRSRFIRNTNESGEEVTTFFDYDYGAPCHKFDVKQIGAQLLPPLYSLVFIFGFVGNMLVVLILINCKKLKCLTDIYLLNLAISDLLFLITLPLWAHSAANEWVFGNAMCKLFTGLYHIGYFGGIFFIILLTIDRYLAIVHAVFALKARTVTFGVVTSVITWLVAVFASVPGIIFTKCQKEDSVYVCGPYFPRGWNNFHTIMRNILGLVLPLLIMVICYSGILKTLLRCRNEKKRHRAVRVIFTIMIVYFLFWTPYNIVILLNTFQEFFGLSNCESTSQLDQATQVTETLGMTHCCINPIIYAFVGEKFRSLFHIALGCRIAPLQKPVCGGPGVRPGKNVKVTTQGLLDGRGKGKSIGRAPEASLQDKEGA

As for “MCP-1 (monocyte chemoattractant protein-1) (from UniProt P13500 24-99) (ligand)”, in test [1], the EC50, 45Ca efflux in Xenopus oocytes injected with receptor cRNA worked out at 15 nM; the EC50, intracellular calcium mobilization (indo-1) in stably transfected MCP-1RB/293 cells is 3.4 nM; the IC50(nM), Inhibition of Adenylyl Cyclase, 293 cells stably expressing MCP-1RB turned out to be 0.09 nM; the Selectivity (MCP-1RB against the MIP-1α/RANTES receptor, from the adenylyl cyclase IC50s) was greater than 9000 fold. Also, in test [1], the block of the forskolin-induced increase of cAMP in MCP-1RB-transfected 293 cells was 78% and the reduction of basal cAMP accumulation in MCP-1RB-transfected 293 cells came to 55%. In test [2], this substance registered an EC50, 45Ca efflux in Xenopus oocytes injected with receptor cRNA of 15 nM. For the same substance, the IC50(nM), Inhibition of Adenylyl Cyclase, 293 cells stably expressing the MIP-1α/RANTES receptor in test [3] came to 820 nM.
On to “Gro-α (from UniProt P09341 35-107) (ligand)”, for which, in test [1], the IC50(nM), Inhibition of Adenylyl Cyclase, 293 cells stably expressing MCP-1RB was greater than 1000 nM. In addition, the IC50(nM), Inhibition of Adenylyl Cyclase, 293 cells stably expressing the MIP-1α/RANTES receptor in test [3] was greater than 1000 nM.
In test [1], “MIP-1β (from UniProt P13236 24-92) (ligand)” gave an IC50(nM), Inhibition of Adenylyl Cyclase, 293 cells stably expressing MCP-1RB greater than 1000 nM.
Still for that read-out and setting: then “RANTES (from UniProt P13501 24-91) (ligand)”, with greater than 1000 nM.
Same read-out and setting: then “MIP-1α (from UniProt P10147 27-92) (ligand)”, with greater than 1000 nM; and “IL-8 (interleukin-8) (from UniProt P10145 28-99) (ligand)”, with greater than 1000 nM.
